Laboratory results: publication PMC8616854
One block for each substance: values may come before it.

Tests used:
[1] = biological target: CdiA‐CT^BWH57 toxin (nuclease) domain (Serratia marcescens BWH57); experiment: crystal structure; CdiA-CT•CdiI complex, 1.59 Å; the N-terminal domain of CdiA-CT was cleaved off by in situ proteolysis before crystallisation
[2] = biological target: Histidine zipper coiled coil protein from Methylobacter tundripaludum (Tuna) (Methylobacter tundripaludum); experiment: crystal structure; crystal structures of the histidine zipper proteins (1.35 to 1.93 Å); antiparallel homo-dimers
[3] = biological target: Histidine zipper coiled coil protein from Nitrosococcus oceani (Nitro) (Nitrosococcus oceani); experiment: as above
[4] = biological target: Histidine zipper coiled coil protein from Meiothermus silvanus (Meio) (Meiothermus silvanus); experiment: as above

Substance: CdiI^BWH57 immunity protein (natural protein)
stoichiometry N [1]: 1

stoichiometry N [2]: 2
Substance: Histidine zipper coiled coil protein from Methylobacter tundripaludum (Tuna) (natural protein)

stoichiometry N [3]: 2
Substance: Histidine zipper coiled coil protein from Nitrosococcus oceani (Nitro) (natural protein)

stoichiometry N [4]: 2
Substance: Histidine zipper coiled coil protein from Meiothermus silvanus (Meio) (natural protein)
